According to article PMC3114554:

Key:
Experiment in all cases: FRET or BRET
[1] = target: CFP-tagged KCNQ3 (human) (UniProt O43525)
[2] = target: CFP-tagged KCNQ2 (human)
[3] = target: CFP-tagged KCNQ4 (human) (UniProt P56696)
Sequence of UniProt P56696 (P56696 whole entry): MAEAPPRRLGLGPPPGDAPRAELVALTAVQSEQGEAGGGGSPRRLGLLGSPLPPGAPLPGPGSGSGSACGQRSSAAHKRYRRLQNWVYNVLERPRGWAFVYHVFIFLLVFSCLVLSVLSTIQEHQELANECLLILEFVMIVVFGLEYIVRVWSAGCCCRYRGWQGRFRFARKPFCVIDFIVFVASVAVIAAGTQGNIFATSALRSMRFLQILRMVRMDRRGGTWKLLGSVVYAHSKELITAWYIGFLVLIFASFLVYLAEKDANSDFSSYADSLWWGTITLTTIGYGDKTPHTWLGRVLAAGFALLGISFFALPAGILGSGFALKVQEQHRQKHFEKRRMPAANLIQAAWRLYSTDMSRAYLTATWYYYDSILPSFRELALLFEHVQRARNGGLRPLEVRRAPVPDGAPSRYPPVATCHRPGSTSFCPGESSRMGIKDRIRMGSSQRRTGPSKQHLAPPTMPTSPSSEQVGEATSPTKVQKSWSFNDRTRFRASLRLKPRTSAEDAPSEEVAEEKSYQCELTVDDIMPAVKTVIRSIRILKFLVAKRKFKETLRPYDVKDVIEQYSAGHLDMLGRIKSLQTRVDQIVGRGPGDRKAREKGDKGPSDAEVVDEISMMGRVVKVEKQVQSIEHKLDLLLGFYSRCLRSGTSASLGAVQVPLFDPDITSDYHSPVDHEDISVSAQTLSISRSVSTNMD

Sequence of UniProt O43525 (O43525 whole entry): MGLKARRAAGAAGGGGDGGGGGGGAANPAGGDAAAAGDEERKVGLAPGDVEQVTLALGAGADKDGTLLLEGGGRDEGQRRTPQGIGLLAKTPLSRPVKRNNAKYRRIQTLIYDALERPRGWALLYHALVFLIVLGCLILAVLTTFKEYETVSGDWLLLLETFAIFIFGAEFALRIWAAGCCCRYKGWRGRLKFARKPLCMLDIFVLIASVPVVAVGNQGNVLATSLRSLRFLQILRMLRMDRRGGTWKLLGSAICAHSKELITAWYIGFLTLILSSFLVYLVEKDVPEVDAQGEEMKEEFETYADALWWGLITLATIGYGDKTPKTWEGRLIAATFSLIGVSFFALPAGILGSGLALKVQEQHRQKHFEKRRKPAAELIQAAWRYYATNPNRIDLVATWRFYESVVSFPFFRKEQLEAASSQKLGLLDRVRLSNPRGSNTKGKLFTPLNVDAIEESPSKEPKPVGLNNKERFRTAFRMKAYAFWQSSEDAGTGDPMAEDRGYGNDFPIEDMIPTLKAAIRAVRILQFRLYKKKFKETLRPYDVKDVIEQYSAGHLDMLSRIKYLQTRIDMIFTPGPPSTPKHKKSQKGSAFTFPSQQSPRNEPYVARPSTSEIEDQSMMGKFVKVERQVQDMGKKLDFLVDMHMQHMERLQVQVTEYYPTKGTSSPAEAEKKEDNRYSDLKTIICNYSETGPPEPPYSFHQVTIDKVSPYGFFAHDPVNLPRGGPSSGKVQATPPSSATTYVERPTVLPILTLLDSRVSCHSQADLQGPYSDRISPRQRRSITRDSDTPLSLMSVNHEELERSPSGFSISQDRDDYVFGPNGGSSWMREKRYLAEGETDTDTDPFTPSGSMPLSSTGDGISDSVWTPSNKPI

FRET efficiency [1]: 13%
FRET efficiency [2]: 17%
FRET efficiency [3]: 16%
Substance: YFP-tagged ΔA-AKAP79 (from UniProt P24588 1-427) (natural protein)
